The results in this text go back to patent US20030003482A1 (published 2003).

The experiment has as its target T1, Human MRP14 (Homo sapiens, UniProt P06702 1-114, limits assumed).
T1 sequence: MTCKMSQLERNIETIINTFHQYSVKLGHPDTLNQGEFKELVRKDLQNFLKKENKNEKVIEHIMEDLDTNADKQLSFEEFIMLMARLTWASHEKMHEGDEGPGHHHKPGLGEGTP
The experiment is described as follows: statement within the sandwich ELISA example (Example 5). Here is the method:
In order to determine the amount of MRP8/MRP14 polypeptide in various wound fluids, wound fluid samples from patients suffering from chronic diabetic wound were collected, venous ulcers as well as wound fluids from wounds of healthy persons. Wound fluids were isolated as described in Example 2 by means of drainage. For the determination of MRP8/MRP14 content, Maxi-Sorb Immunoplates (96-well, Nunc, Wiesbaden, Germany) were coated with polyclonal rabbit antisera against MRP14 by incubating each well overnight at 4° C. with 50 μl of coating solution (anti-MRP14 antibody, 2 μg/ml, in 0.1 M NaHCO3, pH 9.5). […] After removal of the blocking reagent, 50 μl of diluted wound fluid samples (buffer A: PBS containing 0.1% Tween 20) were added and allowed to react with the immobilized capture antibody for 1 h at 37° C. and then washed (3×) with buffer A. Bound antigen was detected by incubation (1 h, 37° C.) of each well with 50 μl of a biotinylated monoclonal antibody against MRP14 (clone S36.48, Dianova, 125 ng/ml antibody in buffer A). […] MRP8 and MRP14 spontaneously form noncovalently associated complexes to a quantitative extent which are detected by the ELISA system. […] The total polypeptide content per probe was determined using the BCA assay.
On the technique in general: ELISA stands for enzyme-linked immunosorbent assay.

B1: Human MRP8 (other)
chain: MLTELEKALNSIIDVYHKYSLIKGNFHAVYRDDLKKLLETECPQYIRKKGADVWFKELDINTDGAVNFQEFLILVIKMGVAAHKKSHEESHKE
notes: Natural protein in human wound fluid and wound biopsy tissue (Western blot); also called calgranulin A
As to B1, the binding result is “binds”.
